This note sets out measurements from PMC5332220.

Where two headings read alike, the source gives them in different places.

The target of assay [1] is SspB_milli (UniProt P45206). Nature of the assay: fluorescence polarisation.
Assay [2] has as its target SspB_nano (UniProt P45206). Nature of the assay: fluorescence polarisation. In general terms: Fluorescence polarisation rises when a labelled molecule tumbles more slowly, as on binding a larger partner.
The target in assay [3] is SspB_micro (UniProt P45206). Nature of the assay: fluorescence polarisation.
Assay [4] has as its target SspB_milli (UniProt P45206). Description: fluorescence polarisation. The source holds these as a separate data set.
In assay [5] the target is SspB_nano (UniProt P45206). Nature of the assay: fluorescence polarisation. This is another data set of the same source.
Assay [6] addresses SspB_micro (UniProt P45206). Description: fluorescence polarisation. This is another data set of the same source.
The target in assay [7] is SspB_milli (UniProt P45206).
The target of assay [8] is SspB_nano (UniProt P45206).
The target in assay [9] is SspB_micro (UniProt P45206).

By Kd is commonly meant the constant that tells how readily two partners part at equilibrium.

Consider “sLID (slow Light Inducible Dimer) (designed binder)”, for which the Kd in [1] came out at 3 µM; in assay [2] it was 0.007 µM; in [3], 0.11 µM; in [4] it was 125 µM; in assay [5] it was 0.31 µM; in [6] it was 2.5 µM. Further, the spine/shaft ratio of GluA1-mCh-SspB fluorescence, dark in assay [7] stood at 1.5; in assay [8], 2.8; in assay [9] it was 1.5. The spine/shaft ratio of GluA1-mCh-SspB fluorescence, light in assay [7] came out at 2.4; in [8] it was 2.9; in [9], 1.8.
